The source of these data is PMC12292245, “Probing the Active Site of Class 3 L-Asparaginase by Mutagenesis: Mutations of the Ser-Lys Tandems of ReAV” (Biomolecules, 2025).

The labels stand for the following.
B1: ReAV R47A mutant (Rhizobium etli Class 3, type V L-asparaginase) (enzyme)
chain: MTPSEDFVVTDRGGIVENSHRVHAAVVDAKGRLLYALGNPTRMTLAASAAKPAQALAILETEGVAGYGFDDADIALMCASHSSEDRHIARTRAMLSKIKAEEADLRCGGHPSLSEMVNRSWIKQDFIPTAVCSNCSGKHVGMLAGARAIGAGTDGYHLPDHPMQGRVKRTVAELCDLDAGDVEWGTDGCNLPTPAFPLDRLGRIYAKLASAADGSDAGEGQSTRCAALAHIFRAMARHPEMVAGEGRYCTMLMRAFDGALVGKLGADASYAIGVRASDATRQLGTDGALGISVKIEDGNLEMLYAVVTELLERLGIGSPDVRSQLASFHHPQRVNTMGVTTGGVSFPFKLRGSKSNVDDPRLAAVAR
notes: ReAV, inducible thermolabile type V L-asparaginase of Rhizobium etli; Homodimer; source: E. coli BL21-Gold (DE3), purified (HisTrap, TEV digestion, second HisTrap, Superdex 200)
B2: ReAV S80A mutant (Rhizobium etli Class 3, type V L-asparaginase) (enzyme)
chain: MTPSEDFVVTDRGGIVENSHRVHAAVVDAKGRLLYALGNPTRMTLARSAAKPAQALAILETEGVAGYGFDDADIALMCAAHSSEDRHIARTRAMLSKIKAEEADLRCGGHPSLSEMVNRSWIKQDFIPTAVCSNCSGKHVGMLAGARAIGAGTDGYHLPDHPMQGRVKRTVAELCDLDAGDVEWGTDGCNLPTPAFPLDRLGRIYAKLASAADGSDAGEGQSTRCAALAHIFRAMARHPEMVAGEGRYCTMLMRAFDGALVGKLGADASYAIGVRASDATRQLGTDGALGISVKIEDGNLEMLYAVVTELLERLGIGSPDVRSQLASFHHPQRVNTMGVTTGGVSFPFKLRGSKSNVDDPRLAAVAR
modifications: Cys249 most likely oxidized, modeled as cysteinesulfinic acid
notes: ReAV, inducible thermolabile type V L-asparaginase of Rhizobium etli; Homodimer; source: E. coli BL21-Gold (DE3), purified (HisTrap, TEV digestion, second HisTrap, Superdex 200); mostly in inclusion bodies, about 10 mg/L recovered from the cell lysate
B3: ReAV K51A mutant (in fact the double mutant K51A/H238Y; Rhizobium etli Class 3, type V L-asparaginase) (enzyme)
chain: MTPSEDFVVTDRGGIVENSHRVHAAVVDAKGRLLYALGNPTRMTLARSAAAPAQALAILETEGVAGYGFDDADIALMCASHSSEDRHIARTRAMLSKIKAEEADLRCGGHPSLSEMVNRSWIKQDFIPTAVCSNCSGKHVGMLAGARAIGAGTDGYHLPDHPMQGRVKRTVAELCDLDAGDVEWGTDGCNLPTPAFPLDRLGRIYAKLASAADGSDAGEGQSTRCAALAHIFRAMARYPEMVAGEGRYCTMLMRAFDGALVGKLGADASYAIGVRASDATRQLGTDGALGISVKIEDGNLEMLYAVVTELLERLGIGSPDVRSQLASFHHPQRVNTMGVTTGGVSFPFKLRGSKSNVDDPRLAAVAR
notes: ReAV, inducible thermolabile type V L-asparaginase of Rhizobium etli; the crystallised protein carries the unintended second mutation H238Y; Homodimer; Zn2+ at occupancy 0.5 in the crystal; source: E. coli BL21-Gold (DE3), purified (HisTrap, TEV digestion, second HisTrap, Superdex 200)
B4: ReAV K263A mutant (Rhizobium etli Class 3, type V L-asparaginase) (enzyme)
chain: MTPSEDFVVTDRGGIVENSHRVHAAVVDAKGRLLYALGNPTRMTLARSAAKPAQALAILETEGVAGYGFDDADIALMCASHSSEDRHIARTRAMLSKIKAEEADLRCGGHPSLSEMVNRSWIKQDFIPTAVCSNCSGKHVGMLAGARAIGAGTDGYHLPDHPMQGRVKRTVAELCDLDAGDVEWGTDGCNLPTPAFPLDRLGRIYAKLASAADGSDAGEGQSTRCAALAHIFRAMARHPEMVAGEGRYCTMLMRAFDGALVGALGADASYAIGVRASDATRQLGTDGALGISVKIEDGNLEMLYAVVTELLERLGIGSPDVRSQLASFHHPQRVNTMGVTTGGVSFPFKLRGSKSNVDDPRLAAVAR
modifications: Cys249 chemically modified, modeled as S-hydroxycysteine
notes: ReAV, inducible thermolabile type V L-asparaginase of Rhizobium etli; Homodimer; Zn2+ at occupancy 0.8 in the crystal; source: E. coli BL21-Gold (DE3), purified (HisTrap, TEV digestion, second HisTrap, Superdex 200)
B5: ReAV S48A mutant (Rhizobium etli Class 3, type V L-asparaginase) (enzyme)
chain: MTPSEDFVVTDRGGIVENSHRVHAAVVDAKGRLLYALGNPTRMTLARAAAKPAQALAILETEGVAGYGFDDADIALMCASHSSEDRHIARTRAMLSKIKAEEADLRCGGHPSLSEMVNRSWIKQDFIPTAVCSNCSGKHVGMLAGARAIGAGTDGYHLPDHPMQGRVKRTVAELCDLDAGDVEWGTDGCNLPTPAFPLDRLGRIYAKLASAADGSDAGEGQSTRCAALAHIFRAMARHPEMVAGEGRYCTMLMRAFDGALVGKLGADASYAIGVRASDATRQLGTDGALGISVKIEDGNLEMLYAVVTELLERLGIGSPDVRSQLASFHHPQRVNTMGVTTGGVSFPFKLRGSKSNVDDPRLAAVAR
notes: ReAV, inducible thermolabile type V L-asparaginase of Rhizobium etli; Homodimer; Zn2+ at occupancy 0.7 in the crystal; source: E. coli BL21-Gold (DE3), purified (HisTrap, TEV digestion, second HisTrap, Superdex 200)

This data set concerns the molecule itself. Briefly: crystal structure; hanging-drop vapor diffusion at 19 °C, protein 15-21 mg/mL with 0.5-1% v/v DDM; data at 100 K; molecular replacement with WT ReAV PDB 7os5; dimers in the asymmetric unit.
For B1, the binding result was “binds”. For B2, the binding result is on record as “binds”. To B3 belongs “binds”.

For the protein B4, the binding result is “binds”. Consider B5, for which the binding result was “binds”.
